The target in assay [1] is HIV-1 JR-CSF Env I323A (HIV-1 (isolate JR-CSF, clade B)) (UniProt P20871). The experiment in a line: cell-based or functional assay.
For assay [2], the target named is HIV-1 JR-CSF Env K305A (HIV-1 (isolate JR-CSF, clade B)) (UniProt P20871). The experiment in a line: cell-based or functional assay.
The target in assay [3] is HIV-1 JR-CSF Env N262A (HIV-1 (isolate JR-CSF)) (UniProt P20871). The assay is described as follows: cell-based or functional assay.
The target in assay [4] is JR-FL GP120 ΔV3 (HIV-1 JR-FL). The experiment in a line: ELISA, antigen-coated wells, mAb titrated; EC50 by nonlinear regression.
Assay [5] concerns the target HIV-1 93UG077 Env (HIV-1). The experiment in a line: cell-based or functional assay.
The target of assay [6] is HIV-1 Env of isolate MGRM-F1-014 (pseudovirus) (HIV-1). The assay is described as follows: cell-based or functional assay.
The target of assay [7] is HIV-1 JR-CSF Env H330A (HIV-1 isolate JR-CSF) (UniProt P20871). The assay is described as follows: cell-based or functional assay.
For assay [8], the target named is HIV-1 JR-CSF Env N332A (HIV-1 isolate JR-CSF) (UniProt P20871). The experiment in a line: cell-based or functional assay.
Assay [9] has as its target HIV-1 JR-CSF Env T388A (HIV-1 isolate JR-CSF) (UniProt P20871). The experiment in a line: cell-based or functional assay.
The next assay addresses HIV-1 JRFL Env (HIV-1). The experiment in a line: cell-based or functional assay.
Assay [10] deals with HIV-1 MGRM-AG-005 Env (HIV-1). The assay is described as follows: cell-based or functional assay.
Assay [11] addresses HIV-1 MGRM-D-001 Env (HIV-1). The assay is described as follows: cell-based or functional assay.
Assay [12] addresses HIV-1 envelope glycoprotein (Env) of isolate 92WR026, subtype A (HIV-1). The experiment in a line: cell-based or functional assay.
In assay [13] the target is HIV-1 envelope glycoprotein (Env) of isolate JR-FL, on pseudovirus (HIV-1). The experiment in a line: cell-based or functional assay.
The target in assay [14] is HIV-1 envelope glycoprotein (Env) of isolate MG RM-A-002, subtype A (HIV-1). The assay is described as follows: cell-based or functional assay.
In assay [15] the target is HIV-1 envelope glycoprotein (Env) of isolate MGRM-Chronic-B-010, on pseudovirus (HIV-1). The experiment in a line: cell-based or functional assay.
Assay [16] deals with HIV-1 JR-CSF Env Q337A (HIV-1 isolate JR-CSF) (UniProt P20871). The experiment in a line: cell-based or functional assay.
Assay [17] deals with HIV-1 JR-CSF Env T202A (HIV-1 (isolate JR-CSF)) (UniProt P20871). The assay is described as follows: cell-based or functional assay.
For assay [18], the target named is HIV-1 JR-CSF Env T320A (HIV-1 (isolate JR-CSF, clade B)) (UniProt P20871). The experiment in a line: cell-based or functional assay.
Assay [19] concerns the target HIV-1 92TH021 envelope glycoprotein (Env) on pseudovirus (HIV-1). The assay is described as follows: cell-based or functional assay.
The target in assay [20] is HIV-1 93IN905 envelope glycoprotein (Env) on pseudovirus (HIV-1). The assay is described as follows: cell-based or functional assay.
For assay [21], the target named is HIV-1 93UG077 envelope glycoprotein (Env) on pseudovirus (HIV-1). The experiment in a line: cell-based or functional assay.
Assay [22] addresses HIV-1 94UG103 envelope glycoprotein (Env) on pseudovirus (HIV-1). The assay is described as follows: cell-based or functional assay.
The target in assay [23] is HIV-1 APV13 envelope glycoprotein (Env) on pseudovirus (HIV-1). The experiment in a line: cell-based or functional assay.
Assay [24] addresses HIV-1 APV6 envelope glycoprotein (Env) on pseudovirus (HIV-1). The assay is described as follows: cell-based or functional assay.
Assay [25] addresses HIV-1 JRCSF envelope glycoprotein (Env) on pseudovirus (HIV-1) (UniProt P20871). The experiment in a line: cell-based or functional assay.
Assay [26] concerns the target HIV-1 JRFL envelope glycoprotein (Env) on pseudovirus (HIV-1). The experiment in a line: cell-based or functional assay.
Assay [27] addresses HIV-1 MGRM-A-010 envelope glycoprotein (Env) on pseudovirus (HIV-1). The experiment in a line: cell-based or functional assay.
The target of assay [28] is HIV-1 MGRM-AG-005 envelope glycoprotein (Env) on pseudovirus (HIV-1). The experiment in a line: cell-based or functional assay.
In assay [29] the target is HIV-1 MGRM-C-026 envelope glycoprotein (Env) on pseudovirus (HIV-1). The assay is described as follows: cell-based or functional assay.
Assay [30] addresses HIV-1 MGRM-C-028 envelope glycoprotein (Env) on pseudovirus (HIV-1). The experiment in a line: cell-based or functional assay.
For assay [31], the target named is HIV-1 NL43 envelope glycoprotein (Env) on pseudovirus (HIV-1). The experiment in a line: cell-based or functional assay.

On to 5114_A19 (PGT-128) (antibody), for which the Fold IC50 increase relative to wild-type in [1] came out at 3 fold; in assay [2], 1.8 fold; in [3], 1.6 fold. The same substance had an EC50 in [4] of 7.8 µg/mL.

For 4858_P08 (PGT-123) (antibody), the IC50, pseudovirus neutralization in [5] is 0.0303 µg/mL; with HIV-1 JRFL Env (HIV-1) it was 0.0283 µg/mL; in assay [10], 0.104 µg/mL; in assay [11], 0.215 µg/mL; in assay [12], 0.012 µg/mL; in assay [13], 0.014 µg/mL. Also, the IC50, pseudovirus neutralization in assay [14] was 0.011 µg/mL; in [15], 0.009 µg/mL. Further, the IC50 (µg/mL), pseudovirus neutralization in assay [6] stood at 0.111 µg/mL. Besides, the Fold IC50 increase relative to wild-type is 0.3 fold in assay [7], over 200 fold in assay [8] and 0.2 fold in assay [9].

For the substance 5136_H01 (PGT-131) (antibody), the Fold IC50 increase relative to wild-type in assay [1] turned out to be 38 fold; in [16], 1.3 fold; in [17] it was 2.7 fold; in assay [18], 4.5 fold.

On to 5147_N06 (PGT-130) (antibody), for which the IC50, pseudovirus neutralization in assay [5] is over 10 µg/mL; in the assay with HIV-1 JRFL Env (HIV-1), 0.0346 µg/mL; in assay [10] it was 0.947 µg/mL; in assay [11], over 10 µg/mL. The results for the Fold IC50 increase relative to wild-type in assay [2] and in assay [3] were 6.9 fold and 0.7 fold, respectively.

Substance 5145_B14 (PGT-127) (antibody) registered an IC50 (µg/mL), pseudovirus neutralization in assay [6] of over 50 µg/mL. Besides, the Fold IC50 increase relative to wild-type in assay [7] is 0.5 fold; in assay [1] it was 4 fold; in assay [2] it was 2.6 fold; in [8], over 100 fold; in assay [16] it was 0.5 fold; in assay [17], 1.8 fold. For the same substance, the Fold IC50 increase relative to wild-type in [18] worked out at 1.8 fold; in [9] it was 0.5 fold. The IC50, pseudovirus neutralization in assay [12] is 0.024 µg/mL; in [13], 0.029 µg/mL; in assay [14], 9.42 µg/mL; in assay [15], 0.019 µg/mL.

Turning to 5343_B08 (PGT-135) (antibody), the Neutralization IC80 in assay [19] was over 10 µg/mL; in [20], 0.0648 µg/mL; in assay [21], over 10 µg/mL; in [22] it was over 10 µg/mL; in assay [23], over 10 µg/mL; in assay [24], over 10 µg/mL. Also, the Neutralization IC80 in assay [25] was 0.503 µg/mL; in assay [26], over 10 µg/mL; in [27] it was over 10 µg/mL; in [28], over 10 µg/mL; in assay [29], 0.0562 µg/mL; in [30], over 10 µg/mL. This substance registered a Neutralization IC80 in [31] of over 10 µg/mL. Besides, the Neutralization IC90 was over 10 µg/mL in assay [19]; 0.136 µg/mL in assay [20]; over 10 µg/mL in assay [21]; over 10 µg/mL in assay [22]; over 10 µg/mL in assay [23]; over 10 µg/mL in assay [24]. Further, the Neutralization IC90 in [25] was 1.47 µg/mL; in [26], over 10 µg/mL; in assay [27], over 10 µg/mL; in assay [28], over 10 µg/mL; in assay [29], 0.139 µg/mL; in [30], over 10 µg/mL. The substance also showed a Neutralization IC90 in assay [31] of over 10 µg/mL. The Neutralization IC95 in assay [19] was over 10 µg/mL; in assay [20] it was 0.268 µg/mL; in assay [21], over 10 µg/mL; in assay [22] it was over 10 µg/mL; in assay [23], over 10 µg/mL; in assay [24], over 10 µg/mL. The Neutralization IC95 in assay [25] is 8.3 µg/mL; in assay [26] it was over 10 µg/mL; in assay [27], over 10 µg/mL; in assay [28], over 10 µg/mL; in assay [29], 0.331 µg/mL; in [30], over 10 µg/mL. The Neutralization IC95 in [31] is over 10 µg/mL. Besides, the neutralization IC50 in assay [19] is over 10 µg/mL; in [20], 0.0183 µg/mL; in [21], over 10 µg/mL; in [22], over 10 µg/mL; in assay [23], 0.545 µg/mL; in [24], over 10 µg/mL. Also, the neutralization IC50 in assay [25] is 0.113 µg/mL; in [26] it was over 10 µg/mL; in assay [27] it was over 10 µg/mL; in assay [28] it was over 10 µg/mL; in [29], 0.0123 µg/mL; in assay [30] it was 2.16 µg/mL. In assay [31], this substance yielded a neutralization IC50 of 6.79 µg/mL. In addition, the Fold IC50 increase relative to wild-type in assay [7] was over 250 fold; in assay [3] it was 2.1 fold; in assay [8], over 250 fold; in assay [16], 2.1 fold; in [17], 1.8 fold; in assay [9], 0.1 fold. The substance further returned an EC50 in assay [4] of 0.2 µg/mL.

5123_A06 (PGT-125) (antibody): the IC50, pseudovirus neutralization was 0.0262 µg/mL in [5]; 0.0156 µg/mL with HIV-1 JRFL Env (HIV-1); over 10 µg/mL in assay [10]; 2.31 µg/mL in assay [11]; 0.007 µg/mL in assay [12]; 0.009 µg/mL in assay [13]. The IC50, pseudovirus neutralization in assay [14] stood at 0.013 µg/mL; in [15] it was 0.006 µg/mL. This substance yielded an IC50 (µg/mL), pseudovirus neutralization in assay [6] of over 50 µg/mL. The Fold IC50 increase relative to wild-type is 2 fold in [8], 0.8 fold in assay [16], 0.8 fold in assay [17] and 0.8 fold in assay [18].

The term EC50 denotes the concentration that produces a half-maximal response. A low value points to an effect from little substance.

For the origin of these results see patent US20240132578A1.
